Measurements from IntAct's records for PubMed 17537733.

Target: kdm1a_human KDM1A (UniProt O60341)

Histone H3.1t (Homo sapiens) (from UniProt Q16695) K5M
effect of a mutation on the interaction: decreasing interaction
